In a protein production outcome set (Wang et al. 2014):

experiment: label from the status in PepcDB records

| Sequence | protein production |
| --- | --- |
| MNIGRHLLLVLFGWLPVRLGFAADAISVVDKQPVNWVAITMFAVFVLITLWITQWAAKKTRSSADFYTAGGTVTGFQNGLAIAGDYVSAASFLGITSAVMANGYDGMLYAIGFLVGWPILTFLIAERLRNLGKYTFADVVAYRFAATSVRLFASVSTLVVVLCYLIAQMVGAGALIRLLFGLDYWVAMVLVGGLMMVYVLFGGMAATTWVQIIKAVLLLIGATFMAVMIMRRFGFNFEGLFASAVEVKTQIAMAGGKSGEEAKALGLSIMAPGSFIKDPISAISLGIALVFGTAGLPHILMRFFTVPDARQARHSVLWAITWIGYCYILMFIIGFGAIVLVLANPQYADIASGTIRGGQGAANMAAVLVAKVVGGNVFMGFVSAVAFATILAVVAGLALSGASAVSHDVYAMVIKQGKPSSDTELLVSRVTTAVLGVVAVLLGIVFQKQNVAFMVSLAFAIAASANFPVLVLSLFWKNCTTRGAVIGGFLGLISSLVLTVLSPSVWVDTLGHSVDSVRFPYTSPALFSMTIGFVGIWLFSVLDRSGRAAKERVAFKAQQVRAETGLGASKMSPN | failed |
| MNIKLKRTLISLVAFSMTCLPFVGTGSSVKAASNDATINVAAKHQTIRGFGASSAWCGALSDTCMDTLYKNAGLDILRVRIAPNEGWNRGDYRAWADELSNAKKVRARGGIVFATPWTPPASMKTNNTTTGANKGSLKPSSYAAYAAYLKTFVKYMSDNGAPLYALSLQNEPDWAPDYDACTWTAQQFHDFLKQYGASLSSTIKIIMPESLGFNPAMSDPTLNDPTTAQYVSIIGGHLYGSPIRDYPLARNKGKDIWMTEHYLEGNDPGTCVKLAKEIHDCMTIGNMNAYVYWWISGDQNGLYNTRTNETYKKTYVMGQFSKFIGNGYSRVDATNSPQSNVYVSAYTGNNKVVIVAINQGTYPVNQSFNVQNSTVSNVSSWVSSGTLNMAKTNSNISAANGRFNASLPAQSVTTFVADLNSTNPTTDPTTNPTPGSTVTLNNGWYYIKNINAQKYLQVASNTGKAGQNVELGSGSGAAGQKWYLTNTGDGYVTLKSALGNYMLDVSYGENKDGSNIQIFNAYSGDAQKFSVKASSKDGQYFVSTKSSNGTKVLDDYNFGTADGTNVCQWTYGGNANQLWAFEPTNN | failed |
| MNIKSAFIRKRGEKFYVYVEYIEETTGKIKQKSYGSYEKKKDAEKHLIEIKSTINNNKFVAPKDITFVERCYKYIDMNKNNWSPYTVTSTKSWVKNYIEPFFKNLKLTEVNPSSVQAFVNYNFNNSTFTSAKVRYSFLSSVIREAYRLREIQENSCDFIKLPSKEKYSTNEIYNREEVLLLIEKLLGNNIEIPILLMLLLGLRMGEATGLRWSDVDLDNNLINVNQILVYSNGKISFKEPKTPKSKRALSAPKELIEKLKIEKLRQSKLKLQGILENKNNLVCLNTNLNPFLPSSLRKTFHNFTKKNNLKKIRIHDLRHTSATLLLLGGTNMKVVSERLGHTDIKITMNRYSHVLKEMDKEASDNLSELLFK | failed |
| MNILTLMETFSAVVEAGSFTGAAEKLGLSKSFVSKQVSTLEVELGCRLLYRTTRTLSLSDEGSQFYNHCKIIMAEAENARAEVMDRQGAPRGKIRMTIPQSLIISGFGQLLIDFQLQYPEIKLEVIASGRIEDLVKEGIDIALRVGQLEDSSLISRRLMDCTFQVVASSDYIKKWGEPFQPADLMQHNCLIYGDSKINKGWPFRSPSGESITVKAKGNFISNDGGLVVEGMLNGLGIGFGPSFLFNEHVEKGRLKLLLSDYYQPPTAISALYPLNRNLSRRIRLLIDYLSERLSV | not failed |
| MNINEKAIEMFEQNKYEEAMELFQQAVHKSRDVQSLNNLAWMYFYEEENDEKALELIREVVKLNPSSYFPYNILGEIYIKQKKWEEAKEVLQKSISIQPSDEAYHNVAVAHYNLGELEKASDFFLRVAGDSDYIMYSYVKCLIDLERTTEAKEKLDTFNRESDNFLGEINVADLYVELNCYKEAIEWFEKGYKECWKSPNWIGRFVYALYKTNNFSRINEVIRECIEAKTAEIEDVQNEEVEENWTENDKKELIEEYTEENNCYKTMVERIKSGYVPGLEFETDYIGACYLFGCKRHNHLEYEK | failed |
| MNINLSVPYAAEGPGPTINTLGQVDGEDVVSISSADLDETEGNLNMTTVSVRSGMTLSQVISRWLFTDDTIVPIEQVFPPGQSTEEVEESNRTAFISSESSATIAAMNYLNIPVEVEVAEVLTDSAATGIFEPGDKLLSIDGTAISTPGDAQTIVRSKAPGDEITISYERNDAESQATITLREHPDDSSVALLGISMLSVPSSAIEVDYNLEDIGGPSAGMMFSLAVVDKLSPGALNGGKFVAGTGTIAEDGSVGPIGGIAHKVRAAEDAGAEVFLSPADNCAEAMSAKPQDMTILKVDSLSQAIDQMAAYNEGLEHHHHHH | not failed |
| MNISEMDSFDVTGFVIRTTNADEVSPSTAKIGELWARFYANAAPKLNEKSKVFGLYTNYGSDFTGAFDVIACSDTLSPEILPDSVKVTVAPGKYVTFSATGEMPQVVIELWGDVWRYFGSESCPYKRAYTTDFEYYKSASEVEISIAIK | failed |
| MNISIFKEKSLKWQLLRRMFLLLICFLIILEIFQYFFLRHYICKDKEMLLESRINNVAHLMTTIDSEASLKKNSGYLIKKSLYFDTTSSVIDKNGNVLLFHIKDKHPTSPPIISASEYKAIMKREGNLEGYTITKNKCGEPQITIWRKIGNLNSPLGLIQLTTPYHSAAQFLYKQIYIYIVACVLILILSILIGGTLIKHTLKPLYRIAHTLNNLTVGDLNKRLSENNNQVEIDHLATAFNNMFSRIEISFNREKELKKKMQQFISDASHELRTPLTSIRGFVEVLLIGSYKDEKKLKLALNTILIESERLTELVNNLLTLTRLDRSTHTEMTKQNMSDIIEEIYPQLKILAKNRQVNLNLYDNNAYFLGNKNQIKQVIFNIVQNSINYTDKETGIITLSLSIEDTLFILKISDNGIGIASKDLPHIFDRFFRSETHRSRESGGYGLGLSIAKSIIQSHGGEISTKSIINQGTSFYIKLKRI | failed |
| MNISPKAIKVRNIWIGGTEPCICAPVVGEDDRKVLREAEEVCRKQPDLLEWRADFFRAIDDQERVLATANGLRNIAGEIPILFTIRSEREGGQPIPLNEAEVRRLIEAICRSGAIDLVDYELAYGERIADVRRMTEECSVWLVVSRHYFDGTPRKETLLADMRQAERYGADIAKVAVMPKSPEDVLVLLQATEEARRELAIPLITMAMGGLGAITRLAGWLFGSAVTFAVGNQSSAPGQIPIDDVRTVLSILQTYSR | not failed |
| MNITKAFCLSIALLGASNMQAITNSDFVIQQDNTKINNYQTNRPETSKRLFVSQAVEQQIAHIKQLLTNARLAWMFENCFPNTLDTTVHFDGKDDTFVYTGDIHAMWLRDSGAQVWPYVQLANKDAELKKMLAGVIKRQFKCINIDPYANAFNMNSEGGEWMSDLTDMKPELHERKWEIDSLCYPIRLAYHYWKTTGDASIFSDEWLTAIAKVLKTFKEQQRKEDPKGPYRFQRKTERALDTMTNDGWGNPVKPVGLIASAFRPSDDATTFQFLVPSNFFAVTSLRKAAEILNTVNKKPDLAKECTTLSNEVETALKKYAVYNHPKYGKIYAFEVDGFGNQLLMDDANVPSLIALPYLGDVKVNDPIYQNTRKFVWSEDNPYFFKGTAGEGIGGPHIGYDMIWPMSIMMKAFTSQNDAEIKTCIKMLMDTDAGTGFMHESFHKNDPKNFTRSWFAWQNTLFGELILKLVNEGKVDLLNSIQLEHHHHHH | failed |
| MNITLAVLQLEDIPQAKQFAIRTRQLLFPDVYQLALPYDLTHFQDVYLHDQKGACFVVKDQQHNIIGMIAYRAYNHRFALDIPKDSVEVVKLFIQPEYRRQGLASRLCEALFGYAAQQKIKYFYLHTHPFLPAAEYFWTKQGFDVIHREEIQNYDTIHMFKSA | failed |
| MNIVKLMVIIIYLIIGSALGIIIIPEIANDLGLQNSSFLKNHYVDGIIGSIFMFLIFGVFIRRVTNAIKGLEHFIMRRSAVEILFATIGLIIGLLISVMVSFILESIGNSIFNHFIPVIITILLCYFGFQFGLKKRDEMLMFLPENIARSMSQHTKSATPKIIDTSAIIDGRILEVIRCGFIDGNILIPQGVINELQIVADSNDSVKREKGKRGLDILNELYDLDYPTKVIHPTKTHSDIDTMLLKLAKQYHASIITTDFNLNKVCHVHGIKALNVNDLSEAIKPNVHQGDQLHILLTKMGKEPGQAVGYLDDGTMVVVDNAKNLIGSHVNLEVVSLLQTSSGRIVFAKKIEDTVSLLEHHHHHH | failed |
